The target of the assay is β2-AR of the β2-AR-Sp SPASM sensor (human) (UniProt P07550).

As to Sp (Gαs C terminus peptide), the critical concentration (CC) of unlabeled peptide for enhanced isoproterenol-stimulated ΔFRET of the β2-AR-Sp sensor in native membranes (peptide 100 nM to 100 μM) worked out at 1.5 µM.

Source of the values: publication PMC6811539, “Minute-scale persistence of a GPCR conformation state triggered by non-cognate G protein interactions primes signaling” (Nature Communications, 2019).
